Laboratory results taken from the nanobody polyreactivity screen of Harvey et al. (2022).

Experiment: yeast display, Sf9 membrane polyspecificity reagent, FACS + sequencing; frameworks hold sequencing errors
Outline: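 A synthetic nanobody library was expressed on Saccharomyces cerevisiae BJ5465 by galactose induction for 36–48 hours. The library was stained for 1 hour at 4 °C with 10% biotinylated, detergent-solubilized Sf9 membrane reagent and enriched with streptavidin microbeads before FACS. Low and high (top ~1%) gates were set on anti-HA fluorescence for expression and streptavidin fluorescence for reagent binding, and each polyreactivity label reflects the gate of origin.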

Row | Sequence | polyreactivity (PSR sort gate)
1 | QVQLVESGGGLVQAGGSLRLSCAASGRTFVTNAMGWYRQAPGKERELVAAISSSGGSTYYADSVKGRFTISRDKAKNTVYLQMNSLKPEDTAVYYCAVGGQTKGQYDYWGQGTQVTVSS | low polyreactivity
2 | QVQLVESGGGLVQAGGSLRLSCAASGRTFVTYAMGWYRQAPGKEREFVAAISRNGGSTYYADSVKGRFTISRDNAKNTVYLQMNSLKPEDTAVYYCAAYAYIFLDWGGYPYYLYEYDYWGQGTQVTVSS | low polyreactivity
3 | QVQLVESGGGLVQAGGSLRLSCAASGRTFVTYAMGWYRQAPGKEREFVAAITWSTGTSTYYADSVKGRFTISRDNAKNTVYLQMNSLKPEDTAVYYCAVDIWWPTWYYIYWGQGTQVTVSS | low polyreactivity
4 | QVQLVESGGGLVQAGGSLRLSCAASGRTFVTYAMGWYRQAPGKEREFVASISSDSGNTYYADSVKGRFTISRDNAKNTLYFQMNSLKPEDTAVYYCARRKVRYWSYPAAHYYWGQGTQVTVSS | low polyreactivity
5 | QVQLVESGGGLVQAGGSLRLSCAASGRTFVVNAMGWYRQAPGKEREFVAAISYRGDSTYYADSVKGRFTISRDNAKNTVYLQMNSLKPEDTAVYYCAAQYRYGRYTRDYWGQGTQVTVSS | high polyreactivity
6 | QVQLVESGGGLVQAGGSLRLSCAASGRTFVVNAMGWYRQATGKERELVAAITRRGGITYYADSVKGRFTISRDTAKNTVYFQMNSLKPEDTAVLYCAADRSYYPDTRSTYGYNYWGQGTQVTVSS | low polyreactivity
7 | QVQLVESGGGLVQAGGSLRLSCAASGRTFVVNVMGWYRQAPGKERELVAAISSVVSTNYADSVKGRFTISRDNAKNTVYLQMNCLKPEDTAVYYCAADVRGAYSTYLYTTTIRYDYWGQGTQVTVSS | low polyreactivity
8 | QVQLVESGGGLVQAGGSLRLSCAASGRTFVVYGMGWYRQAPGKERELVATITSGGSTDYADSVKGRFTIARDNAKNTVYLQMNSLKPEDTAVYYCAKETSYTNDDDYWGQGTQVTVSS | low polyreactivity
9 | QVQLVESGGGLVQAGGSLRLSCAASGRTFVWNAIGWYRQAPGKERELVDAITSGGSTNYADSVKGRFTISRDNAKNTVYLQMNSLKPEDTAVYYCAADWHYSPRMDYWGQGTLVTVSS | low polyreactivity
10 | QVQLVESGGGLVQAGGSLRLSCAASGRTFVYNAMGWYRQAPGKERELVAAINWRGGSTYYADSVKGRFTISRDNAKNTVSLQMNSLKPEDTAVYYCAPRNVYVWYDYWGQGTQVTVSS | low polyreactivity
11 | QVQLVESGGGLVQAGGSLRLSCAASGRTFVYNAMGWYRQAPGKERELVAAITRNGGSTYYADSVKGRFTISRDNAKNTVYLQMNSLKPEDTAVYYCNRDVRYVGRSGFDYWGQGTQVTVSS | high polyreactivity
12 | QVQLVESGGGLVQAGGSLRLSCAASGRTFVYNAMGWYRQAPGKERELVAAITSGGSTYYADSVKGRFTMSRDNAKNTVYLQMNSLKPEDTAVYYCDGYKRGYYWGQGTQVTVSS | high polyreactivity
13 | QVQLVESGGGLVQAGGSLRLSCAASGRTFVYYAMGWYRQAPGKERELVAAITSGGSTNYADSVKGRFTISRDNAKNTVYLQMNSLKPEDTAVYYCNAYGVSWFYYTWKYDYWGQGTQVTVSS | low polyreactivity
14 | QVQLVESGGGLVQAGGSLRLSCAASGRTFVYYAMGWYRQAPGKERELVATISTTGGRTYYADSVKGRFTISRDNAKNTVYLQMNSLKPEDTAVYYCAADLYGAYGYWGQGTQVTVSS | low polyreactivity
15 | QVQLVESGGGLVQAGGSLRLSCAASGRTFVYYAMGWYRQAPGKERELVATITRGGRTNYADSVKGRFTISRDNAKNTVYLQMNSLKPEDTAVYYCNARYSWWRSRVGSSHRPDGYWGQGTQVTVSS | high polyreactivity
16 | QVQLVESGGGLVQAGGSLRLSCAASGRTFWANAMGWYRQAPGKERELVAAITIDGRTSYADSVKGRFTISRDNAKNTVYLQMNSLKPEDTAVYYCATEPFYTYGYYTYPYWYDYWGQGTQVTVSS | low polyreactivity
17 | QVQLVESGGGLVQAGGSLRLSCAASGRTFWDYAMGWYIQAPGKEREFVAAINTSGGRTYYADSVKGRFTISRDNAKNTVYLQMNSLKPEDTAVYYCAARTRDRAYDSWGQGTQVTVSS | high polyreactivity
18 | QVQLVESGGGLVQAGGSLRLSCAASGRTFWFNAMGWYRQAPGKARELVAAISGITGSTYYADSVKGRITISRDNAKNTVYLQMNSLKPEATAVYYCATNRRGTWDYDYWGQGTQVTVSS | low polyreactivity
19 | QVQLVESGGGLVQAGGSLRLSCAASGRTFWFYAMGWYRQAPGKERELVATINYRGGTTYYADSVKGRFTISRDNAKNTVYLQMNSLKPEDTAVYYCAVRPTRTFIYVYWGQGTEVTVSS | high polyreactivity
20 | QVQLVESGGGLVQAGGSLRLSCAASGRTFWGITMGWYRQAPGKERELVASITYSGGRTYYADSVKGRFTISRDNAKNTVYLQMNSLKPEDTAVYYCAATLYRYRYFGYDYWGQGTQVTVSS | high polyreactivity
21 | QVQLVESGGGLVQAGGSLRLSCAASGRTFWIYAMGWYRQAPGKERELVAGISRSGGSTNYADSVKGRFTISRDNAKNTVYLQMNSLKPEDTAVYYCNTDPYSSAWYNYDYWGQGTQVTVSS | low polyreactivity
22 | QVQLVESGGGLVQAGGSLRLSCAASGRTFWKNTMGWSRQAPGKERELVAVISSGGVSTSYADSVKGRFTISRDNAKNTVYLQMNSLKPEDTAVYYCAADGYYIGPYDYWGQGTQVTVSS | low polyreactivity

Row | Sequence | polyreactivity (PSR sort gate)
23 | QVQLVESGGGLVQAGGSLRLSCAASGRTFWNYAMGWYRQAPGKERDLVAVIRFSDGSTYYAYSVKGRFTISRDNAKNTVYLHMNSLKPEDTAVYYCAAKGPRRWGSGFDYWGQGTQVTVSS | low polyreactivity
24 | QVQLVESGGGLVQAGGSLRLSCAASGRTFWPYVMGWYRQAPGKERELVASITRSGGTTNYADSVKGRFTISRDNAKNTVYLQMNSLKPEDTAVYYCNARTVYSWSREYNYWGQGTQVTVSS | high polyreactivity
25 | QVQLVESGGGLVQAGGSLRLSCAASGRTFWRNAMGWYRQAPWKERELVAAISRSGDSTRYADSVKGRFTISRDNAKYSVYLQRTSLKPEATAVYYCNKLGTGVYEMDYWGQGTKVTVSS | high polyreactivity
26 | QVQLVESGGGLVQAGGSLRLSCAASGRTFWRYAMGWDRQAPGKERELVAGITNSGGNTYYADSVKGRFTISRDNAKNTVYLQMNSLKPEDTAVYYCAARSGRFKYSSWSRGPTYDYWGQGTQVTVSS | low polyreactivity
27 | QVQLVESGGGLVQAGGSLRLSCAASGRTFWSYAMGWYRQAPGKEREFVAAISRRGGITYYADSVKGRFTISRDNAKNTVYLQMNSLKPEDTAVYYCAKGAQSYYGGQVKYDYWGQGTQVTVSS | high polyreactivity
28 | QVQLVESGGGLVQAGGSLRLSCAASGRTFWTYTMGWYRQAPGKEREFVAAITFGDGSTSYADSVKGRFTISRDNAKNTVYLQMNSLKPEDTAVYSCAKRWRRRFVDVWSLYDYWGQGTQVTVSS | low polyreactivity
29 | QVQLVESGGGLVQAGGSLRLSCAASGRTFWWYTMGWYRQAPGKERELVAVISSTGGRTYYADSVKGRFTISRDNAKNTVYLQMNSLKPEDTSVYYCAAEYVSAKWEYGYWGQGTQVTVSS | low polyreactivity
30 | QVQLVESGGGLVQAGGSLRLSCAASGRTFWYNAMGWYRQAPGKERELVAAISSSGGTTYYADSVKGRFTISRDNAKNTVYLQMNSLIPEDTAVYYCARQRRSVNVYKNIYKYWGQGTQVNVSS | high polyreactivity
31 | QVQLVESGGGLVQAGGSLRLSCAASGRTFWYYAMGWYRPAPGKERELVAGIRSGGSTYYADSVKGRFTISRDNAKNTVYLQMNSLKPEDTAVYYCATDYYYSNAKYDYWGQGTQVTVSS | high polyreactivity
32 | QVQLVESGGGLVQAGGSLRLSCAASGRTFWYYAMGWYRQAPGKERELVASISRSGGSTYYADSVKGRFTISRDNAKNTVYLQMNSLKPEDTAVYYCARGSELGYYAWVYYWGQGTQVTVSS | high polyreactivity
33 | QVQLVESGGGLVQAGGSLRLSCAASGRTFWYYAMGWYRQAPGKERELVAVINSSGGRTYYADSVKGRFTISRDNAKNTVYLQMNSLKPEDTAVYYCAAYRGVPSRYDYWGQGTQVTVSS | high polyreactivity
34 | QVQLVESGGGLVQAGGSLRLSCAASGRTFWYYDMGWSRQAPGKERELVAAISRSGGSTYYADSVKGRFTISRDNAKNTVYLQMNSLKPEDTAVYFCAAVSYGYWVTEYYYWGQGSQVTVSS | high polyreactivity
35 | QVQLVESGGGLVQAGGSLRLSCAASGRTFWYYEMGWYRQAPGKERELVATINNVGSTHYADSVKGRFTISRDNAKNTVYLQMNSLKPEDTAVYYCGRASYGKMDYWGQGTQVTVSS | high polyreactivity
36 | QVQLVESGGGLVQAGGSLRLSCAASGRTFWYYTMGWYRQAPGKERELVAAISRSGGSTYYADSVKGRFTISRDNAKNTVYLQMNSLKPEDSAVYFCAAGVQSSVYPYYRFDYWGQGTQVTVSS | high polyreactivity
37 | QVQLVESGGGLVQAGGSLRLSCAASGRTFWYYTMGWYRQAPGKERELVAAITRRGGSTYYADSVKGRFTISRDNAKNTVYLQMNSLKPEDTAVYYCARGGSRLTQGWLVTPYDYDYWGQGTQVTVSS | high polyreactivity
38 | QVQLVESGGGLVQAGGSLRLSCAASGRTFYANAMGWYRQAPGKERELVAGISYSGGNTYYADSVKGRFTISRDNAKNTVYLQMNRLKPEYTAVYYCAAATDWEYWTYEYWRQGTQVTVSS | low polyreactivity
39 | QVQLVESGGGLVQAGGSLRLSCAASGRTFYANDMGWYRQAPGKERELVAAISSSVTSTHYADSVKGRFTISRDNAKNTVYLQMNSLKPEDTAVYYCNKDPIREVPPPGPSEMDYWGQGTQVTVSS | low polyreactivity
40 | QVQLVESGGGLVQAGGSLRLSCAASGRTFYAYVMGWYRQAPGKERELVAAISGGGRTYYADSVKGRFTISRDNAKNTVYLQMNSLKPEDTAVYYCAAVSLWYSAYEYWGQGTQVTVSS | high polyreactivity
41 | QVQLVESGGGLVQAGGSLRLSCAASGRTFYDNTMGWYRQAPGKERELVAAINWSGTRTYYADSVKGRFTISRDNAKNTVYLQMNSLKPEDTAVYYCAADGPFRRTYGYWGQGTQVTVSS | low polyreactivity
42 | QVQLVESGGGLVQAGGSLRLSCAASGRTFYDNTMGWYRQAPWKERELVAAISRGGSTYADSVKGRFTISRDNAKNTVYLQMNSLKPEDTAVYYCNKRSITTEYGYWGQGTQVTVSS | low polyreactivity
43 | QVQLVESGGGLVQAGGSLRLSCAASGRTFYDYAMGWYRQAPGKERELVAGIRWSGGSTYYADSVKGRFTISRDNAKNTVYLQMISLKPEDTAVYYCAADWFAGVAADVEYDYWGQGTQVTVSS | low polyreactivity
